Legend:
[1] = biological target: T1, ApmFNuc (ApmHNuc, Isvmimi Fanzor2) (Acanthamoeba polyphaga mimivirus, UniProt Q5UPQ8 SEQ:1-520); test: pulldown; co-purified fRNA identified by small RNA sequencing; conditions: tags: Strep tag; RNP co-expressed with fRNA in E. coli
T1 sequence: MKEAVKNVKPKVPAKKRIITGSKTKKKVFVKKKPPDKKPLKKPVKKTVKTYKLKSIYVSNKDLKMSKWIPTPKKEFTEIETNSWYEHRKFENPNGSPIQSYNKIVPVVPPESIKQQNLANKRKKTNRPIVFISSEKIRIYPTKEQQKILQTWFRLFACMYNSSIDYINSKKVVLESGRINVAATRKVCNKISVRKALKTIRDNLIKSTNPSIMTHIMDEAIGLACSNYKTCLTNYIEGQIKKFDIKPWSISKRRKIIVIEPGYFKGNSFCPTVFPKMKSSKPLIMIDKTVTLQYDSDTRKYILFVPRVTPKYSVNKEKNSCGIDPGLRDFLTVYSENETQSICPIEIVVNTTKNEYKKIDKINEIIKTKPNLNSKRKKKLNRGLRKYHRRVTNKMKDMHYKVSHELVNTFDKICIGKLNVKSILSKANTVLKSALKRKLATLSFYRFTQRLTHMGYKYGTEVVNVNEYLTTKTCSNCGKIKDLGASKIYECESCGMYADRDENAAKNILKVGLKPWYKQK

DpFNuc = biological target: T2, DpFNuc (Dreissena polymorpha); test: pulldown; co-purified fRNA sequenced
T2 chain: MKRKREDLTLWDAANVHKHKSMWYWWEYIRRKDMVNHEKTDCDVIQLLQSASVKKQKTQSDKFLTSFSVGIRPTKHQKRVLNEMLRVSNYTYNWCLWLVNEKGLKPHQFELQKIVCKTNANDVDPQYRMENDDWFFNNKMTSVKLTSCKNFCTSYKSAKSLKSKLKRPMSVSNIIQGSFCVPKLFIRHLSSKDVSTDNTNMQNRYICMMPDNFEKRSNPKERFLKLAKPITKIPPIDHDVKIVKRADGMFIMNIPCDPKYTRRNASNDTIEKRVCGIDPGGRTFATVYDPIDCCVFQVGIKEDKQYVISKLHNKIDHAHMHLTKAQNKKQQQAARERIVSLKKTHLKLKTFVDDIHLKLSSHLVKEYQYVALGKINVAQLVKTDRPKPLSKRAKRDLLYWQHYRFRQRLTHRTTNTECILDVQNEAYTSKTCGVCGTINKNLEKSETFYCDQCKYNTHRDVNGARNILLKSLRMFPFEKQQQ
Excerpt: (§1) This study sought to explore whether Fanzor2 proteins from diverse eukaryotes also are active RNA-guided nucleases. Three Fanzor2 representatives from three animals and a Fanzor1 representative from a plant were chosen for this study: 1) Fanzor2 from Aercenaria mercenaria (Venus clam, MmFNuc), 2) Fanzor2 from Dreissena polymorpha (Zebra mussel, DpFNuc), 3) Fanzor2 from Batillaria attramentaria (Japanese mud snail; BaFNuc), and 4) Fanzor1 from Klebsormidium nitens (freshwater green algae; KnFNuc) (FIG. 21A). […] Constructs for co-expression of the fRNA and Fanzor nuclease were cloned in a cell-free transcription/translation system, allowing for isolation of the resulting RNPs to study their fRNA sequences and cleavage activity (FIG. 21B). […] These fRNAs were highly structured with diverse structural motifs and domains (FIG. 28B).

MmFNuc = biological target: T3, MmFNuc (Mercenaria mercenaria); test: pulldown; co-purified fRNA sequenced
T3 chain: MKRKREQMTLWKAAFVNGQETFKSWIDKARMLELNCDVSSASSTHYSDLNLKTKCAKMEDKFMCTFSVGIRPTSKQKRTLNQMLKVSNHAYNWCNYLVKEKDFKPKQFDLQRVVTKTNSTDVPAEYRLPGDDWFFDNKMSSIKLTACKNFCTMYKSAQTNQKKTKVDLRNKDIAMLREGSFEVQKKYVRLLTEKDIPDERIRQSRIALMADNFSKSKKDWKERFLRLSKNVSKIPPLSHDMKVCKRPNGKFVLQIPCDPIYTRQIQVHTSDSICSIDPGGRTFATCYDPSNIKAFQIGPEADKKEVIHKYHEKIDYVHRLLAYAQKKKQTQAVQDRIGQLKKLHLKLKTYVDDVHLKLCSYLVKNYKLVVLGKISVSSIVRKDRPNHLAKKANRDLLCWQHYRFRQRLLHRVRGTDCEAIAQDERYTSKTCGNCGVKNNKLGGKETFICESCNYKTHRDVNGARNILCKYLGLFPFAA
Excerpt: as §1

BaFNuc = biological target: T4, BaFNuc (Batillaria attramentaria); test: pulldown; co-purified fRNA sequenced
T4 chain: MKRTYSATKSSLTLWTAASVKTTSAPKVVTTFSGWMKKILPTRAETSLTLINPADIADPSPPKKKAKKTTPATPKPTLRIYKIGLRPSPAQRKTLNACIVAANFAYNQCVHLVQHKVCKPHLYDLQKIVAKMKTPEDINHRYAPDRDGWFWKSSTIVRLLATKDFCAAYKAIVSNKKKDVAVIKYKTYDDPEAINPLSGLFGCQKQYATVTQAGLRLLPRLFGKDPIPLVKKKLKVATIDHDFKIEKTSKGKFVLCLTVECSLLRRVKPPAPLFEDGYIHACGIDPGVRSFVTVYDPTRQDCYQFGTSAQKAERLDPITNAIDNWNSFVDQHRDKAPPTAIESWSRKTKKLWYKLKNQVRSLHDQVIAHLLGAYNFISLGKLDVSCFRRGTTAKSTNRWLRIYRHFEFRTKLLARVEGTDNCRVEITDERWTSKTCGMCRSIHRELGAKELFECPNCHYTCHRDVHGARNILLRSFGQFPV
Excerpt: as §1

KnFNuc (Fanzor1) = biological target: T5, KnFNuc (Fanzor1) (Klebsormidium nitens); test: pulldown; co-purified fRNA sequenced
T5 chain: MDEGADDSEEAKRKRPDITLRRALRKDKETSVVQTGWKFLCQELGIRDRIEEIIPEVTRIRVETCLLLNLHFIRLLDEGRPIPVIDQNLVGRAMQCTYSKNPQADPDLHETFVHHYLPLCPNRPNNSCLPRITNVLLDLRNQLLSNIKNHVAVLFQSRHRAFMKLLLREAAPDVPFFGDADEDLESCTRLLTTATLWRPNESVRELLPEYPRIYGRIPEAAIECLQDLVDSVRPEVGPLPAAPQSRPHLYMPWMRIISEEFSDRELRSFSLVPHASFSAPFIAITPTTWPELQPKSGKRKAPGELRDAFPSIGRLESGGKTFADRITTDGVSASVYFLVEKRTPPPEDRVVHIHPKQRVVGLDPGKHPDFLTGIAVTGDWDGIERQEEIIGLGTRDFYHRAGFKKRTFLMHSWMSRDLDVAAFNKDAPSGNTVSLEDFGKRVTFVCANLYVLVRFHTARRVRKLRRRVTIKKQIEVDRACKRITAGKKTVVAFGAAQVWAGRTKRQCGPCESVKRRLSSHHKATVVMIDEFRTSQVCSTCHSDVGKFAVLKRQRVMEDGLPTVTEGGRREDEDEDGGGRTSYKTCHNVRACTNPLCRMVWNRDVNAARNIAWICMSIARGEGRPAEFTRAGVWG
Excerpt: as §1

B1: ApmFNuc fRNA scaffold (21 nt 3' guide appended) (ssRNA)
RNA: AAAAAUAGUCUAAUAAAAUCAGGGGUACAUUCCGCUAGUACUCCACCCUACGGGUUAAGCAAAUGAGAAUAUCGAAACGGUAUGCACAGGAUUCUUCGAGUGAUAAUCUUAGGAUGACUCACUAAGGAGAUGACUAAAGUGUAUCAUUCAAUAUUGUAUUGAACGGUAUUCUUCCAUAGAGAGUUGAUUUUUGGAGUAUCCAGAAAUAUCAACUUUUUAUGAGCGG
binding result [1]: binds

B2: DpFNuc fRNA scaffold (ssRNA)
RNA: AUUGGAUGUUCAAAAUGAAGCAUACACUUCGAAGACGUGUGGAGUGUGUGGAACAAUAAACAAAAAUCUAGAAAAGAGUGAAACAUUUUAUUGCGAUAACUGCAAAUAUAACACACACAGAGACGUUAAUGGUGCUAGAAAUAUUUUGCUAAAAUCGUUGCGCAUGUUUCCAUUUGUCAAUUCGCAGUUAUAAUUACUCUGUAACAAUUAGGUCGAUCCAUCCUAAAUUCGAAAGUCCAUUGCUACGAGACUUUGCGUAUGCUUAGUCCAGGGCAAUUUUCUGCCGAAUGAAAUGGGUUA
binding result (DpFNuc): binds

B3: MmFNuc fRNA scaffold (ssRNA)
RNA: ACUUCCAAGACCUGUGGUAAUUGCGGUGUGAAGAACAACAAACUUGGUGGAAAGGAAACGUUUACUUGUGAGUGUUGCAAUUACAAAACUCAUCGAGACGUCAACGGAGCGAGAAACAUUCUGUGCAAAUACUUGAAACUUUUUCCAUUCGCAGCAUAACGAAAGAAACUGACAAUCGAUUUUUUCGGGUUCGAUUCUAUCCCACUUGACUCAAAGAGUCAGAGGGCUCGAAUACAUUUUCUGCACAGGUUUUGCUAAUGCAAGAUCUGGGGCAAGAAUGUGUUCGGGUCAAAUGAGUUA
binding result (MmFNuc): binds

B4: BaFNuc fRNA scaffold (ssRNA)
RNA: CGCUCGAGUGGAGGGAACUGACAACUGUAGAGUGGAGAUCACCGACGAACGCUGGACCUCAAAGACGUGUGGCAUGUGCAGAUCCAUCCACCGCGAACUUGGGGCAAAAGAACUAUUCGAGUGCCCCAACUGCCACUACACCUGCCACAGAGACGUGCACGGAGCUCGAAACAUCUUGCUGAGAAGCUUCGGACAGUUUCCAGUCUAGAAAAACACGAACUUUUUCCUUGGCCCAAGGAUUGCCAAACACCACUCAAAUCCUCGUUCAGGGGCCUCGAGUGGCUGGGCAUAUAUGGGUUA
binding result (BaFNuc): binds

B5: KnFNuc fRNA scaffold (ssRNA)
RNA: GGAGGAGGGAGGACAAGCUACAAGACGUGCCACAACGUGCGAGCGUGUACGAACCCGCUCUGUCGCAUGGUGUGGAAUAGAGACGUCAACGCAGCUCGUAACAUAGCUUGGAUCUGUAUGAGCAUAGUCAGAGGCGAGGGCAGGCCAGCGGAGUUCACGAGAGCAGGAAUGUGAGGAUGACUGAGAAUUAGUCGAAAGACAUAGCUGCCUAGAAACGAGUUCAUCUAGGCACUUCGGUGAGAAUCCGAGAUACGGCUGGGUACUGUGGCGAGUGUGCCAUUUUACUCUGAACAGACUGUA
binding result (KnFNuc (Fanzor1)): binds
